From article PMC3721678

What was measured:
Test in all cases: SPR
[1] = target: monomeric IgA1Mce myeloma protein (human)
[2] = target: monomeric IgA1κ myeloma protein (human)
[3] = target: monomeric IgA1λ myeloma protein (human)
[4] = target: polymeric IgA1Ale myeloma protein (human)
[5] = target: Hinge region glycopeptide (HR-GalNAc) (human)
[6] = target: polymeric IgA1Mce myeloma protein (human)
[7] = target: polymeric IgA1λ myeloma protein (human)
[8] = target: polymeric IgA1κ myeloma protein (human)
[9] = target: IgA1-Fc Fc (Homo sapiens) (UniProt P01876); settings: cited from earlier work
Sequence of IgA1-Fc Fc (Homo sapiens) (P01876 120-340): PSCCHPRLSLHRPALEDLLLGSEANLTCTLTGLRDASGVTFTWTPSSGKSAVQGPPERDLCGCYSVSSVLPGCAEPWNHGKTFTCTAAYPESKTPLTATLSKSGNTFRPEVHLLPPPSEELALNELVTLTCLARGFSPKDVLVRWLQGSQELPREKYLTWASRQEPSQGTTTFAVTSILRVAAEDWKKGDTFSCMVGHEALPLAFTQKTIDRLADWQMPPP

Sequence of FcαRI (P24071 22-287): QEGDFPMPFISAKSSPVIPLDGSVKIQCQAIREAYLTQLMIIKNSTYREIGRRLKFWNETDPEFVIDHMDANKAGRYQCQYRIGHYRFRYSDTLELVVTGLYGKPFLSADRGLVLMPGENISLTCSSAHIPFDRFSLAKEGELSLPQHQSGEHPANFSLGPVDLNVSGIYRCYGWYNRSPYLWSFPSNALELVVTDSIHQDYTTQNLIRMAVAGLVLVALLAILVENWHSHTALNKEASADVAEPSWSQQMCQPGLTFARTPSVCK

Row | Substance | KD1 (two-site model, apparent) [1] [µM] | KD2 (two-site model, apparent) [1] [µM] | KD1 (two-site model, apparent) [2] [µM] | KD2 (two-site model, apparent) [2] [µM] | KD1 (two-site model, apparent) [3] [µM] | KD2 (two-site model, apparent) [3] [µM] | KD1 (two-site model, apparent) [4] [µM] | KD2 (two-site model, apparent) [4] [µM] | KD1 (two-site model, apparent) [5] [µM] | KD2 (two-site model, apparent) [5] [µM] | KD1 (two-site model, apparent) [6] [µM] | KD2 (two-site model, apparent) [6] [µM] | KD1 (two-site model, apparent) [7] [µM] | KD2 (two-site model, apparent) [7] [µM] | KD1 (two-site model, apparent) [8] [µM] | KD2 (two-site model, apparent) [8] [µM] | Kd [9] [nM]
1 | Helix pomatia agglutinin (natural protein) | 2.3 | 24 | 0.76 | 10 | 1.8 | 21 | 0.58 | 6 | 0.045 | 2.3 | 1.1 | 7 | 1.1 | 5 | 0.65 | 11 | –
2 | FcαRI (from UniProt P24071) | – | – | – | – | – | – | – | – | – | – | – | – | – | – | – | – | 9
3 | Helix aspersa agglutinin (natural protein) | 7.2 | 76 | 1.8 | 8 | 6.2 | 73 | 1 | 14 | 0.11 | 7 | 5.6 | 70 | 3 | 28 | 1.7 | 25 | –
